The source of these data is paper PMC2691550 (Biochemistry, 2006).

As a reminder, the stoichiometry N is the number of molecules, sites or subunits per partner or assembly.

This series concerns the molecule itself. Kind of series: crystal structure.

B1: Tyrosine phenol-lyase holoenzyme (Citrobacter freundii), in complex with pyridoxal-5′-phosphate and K+ at pH 8.0 (enzyme, UniProt P31013 1-456, looked up)
chain: MNYPAEPFRIKSVETVSMIPRDERLKKMQEAGYNTFLLNSKDIYIDLLTDSGTNAMSDKQWAGMMMGDEAYAGSENFYHLERTVQELFGFKHIVPTHQGRGAENLLSQLAIKPGQYVAGNMYFTTTRYHQEKNGAVFVDIVRDEAHDAGLNIAFKGDIDLKKLQKLIDEKGAENIAYICLAVTVNLAGGQPVSMANMRAVRELTEAHGIKVFYDATRCVENAYFIKEQEQGFENKSIAEIVHEMFSYADGCTMSGKKDCLVNIGGFLCMNDDEMFSSAKELVVVYEGMPSYGGLAGRDMEAMAIGLREAMQYEYIEHRVKQVRYLGDKLKAAGVPIVEPVGGHAVFLDARRFCEHLTQDEFPAQSLAASIYVETGVRSMERGIISAGRNNVTGEHHRPKLETVRLTIPRRVYTYAHMDVVADGIIKLYQHKEDIRGLKFIYEPKQLRFFTARFDYI
modifications: Lys257 Nζ covalently linked to C4′ of pyridoxal-5′-phosphate (internal aldimine)
B1: the “stoichiometry N” value stood at 4.
